Laboratory results taken from US20090169520A1, “Compounds, Pharmaceutical Compositions and Therapeutic Methods of Preventing and Treating Diseases and Disorders Associated With Amyloid Fibril Formation” (YISSUM RESEARCH DEVELOPMENT COMPANY OF THE HEBREW …, priority 2005, published 2009).
Marks after values point to notes of the source that are not given here.

T1: Amylin (Homo sapiens, UniProt P10997)
T1 sequence (P10997 34-70 limits assumed): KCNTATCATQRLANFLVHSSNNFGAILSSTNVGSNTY

B1: BChE: Purified human BChE from human serum (Sigma) (protein, listed as Homo sapiens)
chain: MHSKVTIICIRFLFWFLLLCMLIGKSHTEDDIIIATKNGKVRGMNLTVFGGTVTAFLGIPYAQPPLGRLRFKKPQSLTKWSDIWNATKYANSCCQNIDQSFPGFHGSEMWNPNTDLSEDCLYLNVWIPAPKPKNATVLIWIYGGGFQTGTSSLHVYDGKFLARVERVIVVSMNYRVGALGFLALPGNPEAPGNMGLFDQQLALQWVQKNIAAFGGNPKSVTLFGESAGAASVSLHLLSPGSHSLFTRAILQSGSFNAPWAVTSLYEARNRTLNLAKLTGCSRENETEIIKCLRNKDPQEILLNEAFVVPYGTPLSVNFGPTVDGDFLTDMPDILLELGQFKKTQILVGVNKDEGTAFLVYGAPGFSKDNNSIITRKEFQEGLKIFFPGVSEFGKESILFHYTDWVDDQRPENYREALGDVVGDYNFICPALEFTKKFSEWGNNAFFYYFEHRSSKLPWPEWMGVMHGYEIEFVFGLPLERRDNYTKAEEILSRSIVKRWANFAKYGNPNETQNNSTSWPVFKSTEQKYLTLNTESTRIMTKLRAQQCRFWTSFFPKVLEMTGNIDEAEWEWKAGFHRWNNYMMDWKNQFNDYTSKKESCVGL
B2: ASP63: synthetic AChE-S C-terminal peptide, mimics residues 548-610 in hAChE (peptide)
chain: PLEVRRGLRAQACAFWNRFLPKLLSATDTLDEAERQWKAEFHRWSSYMVHWKNQFDHYSKQDR
modifications: ASP63 Synthetic peptide
notes: synthetic AChE-S C-terminal peptide, mimics residues 548-610 in hAChE
B3: AChE-S: recombinant human ACHE-S, prepared from an ACHE cDNA clone (Sigma) (protein, listed as Homo sapiens)
chain: MRPPQCLLHTPSLASPLLLLLLWLLGGGVGAEGREDAELLVTVRGGRLRGIRLKTPGGPVSAFLGIPFAEPPMGPRRFLPPEPKQPWSGVVDATTFQSVCYQYVDTLYPGFEGTEMWNPNRELSEDCLYLNVWTPYPRPTSPTPVLVWIYGGGFYSGASSLDVYDGRFLVQAERTVLVSMNYRVGAFGFLALPGSREAPGNVGLLDQRLALQWVQENVAAFGGDPTSVTLFGESAGAASVGMHLLSPPSRGLFHRAVLQSGAPNGPWATVGMGEARRRATQLAHLVGCPPGGTGGNDTELVACLRTRPAQVLVNHEWHVLPQESVFRFSFVPVVDGDFLSDTPEALINAGDFHGLQVLVGVVKDEGSYFLVYGAPGFSKDNESLISRAEFLAGVRVGVPQVSDLAAEAVVLHYTDWLHPEDPARLREALSDVVGDHNVVCPVAQLAGRLAAQGARVYAYVFEHRASTLSWPLWMGVPHGYEIEFIFGIPLDPSRNYTAEEKIFAQRLMRYWANFARTGDPNEPRDPKAPQWPPYTAGAQQYVSLDLRPLEVRRGLRAQACAFWNRFLPKLLSATDTLDEAERQWKAEFHRWSSYMVHWKNQFDHYSKQDRCSDL
B4: BChE K variant: BChE variant with a single C-terminal substitution (A539T) (protein, UniProt P06276 29-602, looked up, variant A539T)
Cholinesterase: EDDIIIATKNGKVRGMNLTVFGGTVTAFLGIPYAQPPLGRLRFKKPQSLTKWSDIWNATKYANSCCQNIDQSFPGFHGSEMWNPNTDLSEDCLYLNVWIPAPKPKNATVLIWIYGGGFQTGTSSLHVYDGKFLARVERVIVVSMNYRVGALGFLALPGNPEAPGNMGLFDQQLALQWVQKNIAAFGGNPKSVTLFGESAGAASVSLHLLSPGSHSLFTRAILQSGSFNAPWAVTSLYEARNRTLNLAKLTGCSRENETEIIKCLRNKDPQEILLNEAFVVPYGTPLSVNFGPTVDGDFLTDMPDILLELGQFKKTQILVGVNKDEGTAFLVYGAPGFSKDNNSIITRKEFQEGLKIFFPGVSEFGKESILFHYTDWVDDQRPENYREALGDVVGDYNFICPALEFTKKFSEWGNNAFFYYFEHRSSKLPWPEWMGVMHGYEIEFVFGLPLERRDNYTKAEEILSRSIVKRWANFAKYGNPNETQNNSTSWPVFKSTEQKYLTLNTESTRIMTKLRAQQCRFWTSFFPKVLEMTGNIDETEWEWKAGFHRWNNYMMDWKNQFNDYTSKKESCVGL
B5: hRBC AChE: human erythrocytes ACHE compared with serum BChE in Table 8 (protein)
chain: EGREDAELLVTVRGGRLRGIRLKTPGGPVSAFLGIPFAEPPMGPRRFLPPEPKQPWSGVVDATTFQSVCYQYVDTLYPGFEGTEMWNPNRELSEDCLYLNVWTPYPRPTSPTPVLVWIYGGGFYSGASSLDVYDGRFLVQAERTVLVSMNYRVGAFGFLALPGSREAPGNVGLLDQRLALQWVQENVAAFGGDPTSVTLFGESAGAASVGMHLLSPPSRGLFHRAVLQSGAPNGPWATVGMGEARRRATQLAHLVGCPPGGTGGNDTELVACLRTRPAQVLVNHEWHVLPQESVFRFSFVPVVDGDFLSDTPEALINAGDFHGLQVLVGVVKDEGSYFLVYGAPGFSKDNESLISRAEFLAGVRVGVPQVSDLAAEAVVLHYTDWLHPEDPARLREALSDVVGDHNVVCPVAQLAGRLAAQGARVYAYVFEHRASTLSWPLWMGVPHGYEIEFIFGIPLDPSRNYTAEEKIFAQRLMRYWANFARTGDPNEPRDPKAPQWPPYTAGAQQYVSLDLRPLEVRRGLRAQACAFWNRFLPKLLSATDTLDEAERQWKAEFHRWSSYMVHWKNQFDHYSKQDRCSDL

Legend:
[1] = Rate of hydrolysis of AThCh/BThCh by cholinesterases; format: biochemical; conditions: for Rate of hydrolysis of AThCh/BThCh: average of three experiments
Procedure: BChE biochemistry—Serum cholinesterase catalytic activity measurements are based on a spectrophotometric method adapted to a microtiter plate assay. Butyrylthiocholine (BTCh, Sigma) hydrolysis rates are measured following 20 minutes incubation with 5×10^−5 M tetraisopropyl pyrophosphoramide (iso-OMPA, Sigma), a specific BChE inhibitor or 10^−5 M 1,5-bis(4-allyldimethylammoniumphenyl) pentan-[…] dibromide (BW284c51, Sigma, A9013), a specific AChE inhibitor. Addition of both inhibitors reduces hydrolysis to the rate of spontaneous hydrolysis measured in control reactions lacking enzyme or substrate, attesting to the specificity of these serum activities. Readings at 405 nm are repeated at 2-minute intervals for 20 minutes. Non-enzymatic hydrolysis of substrate is subtracted from the total rate of hydrolysis. Enzyme activity is calculated using the molar extinction coefficient for 5-thio-2-nitrobenzoate [13,600 M^−1×cm^−1] [Ellman, G. L. et al. (1961) Biochem. Pharmacol. 7:88-95].
In addition, BChE is soluble and thus accessible to circulating ACh. Moreover, the substrate of preference of BChE is different than that of ACHE. Thus, over the range of substrate concentrations 0.1 to 25 mM, the ratio of hydrolysis of AThCh relative to BThCh differs between the enzymes (Table 8, hereinbelow).

Amylin = target: T1, Amylin; assay: Amylin amyloid fibril formation, Thioflavin T fluorescence; format: biochemical; conditions: 20 μM amylin
Procedure: FIG. 6 is a graph illustrating the effect of BChE in preventing amylin amyloid fibril formation. Amylin at a concentration of 20 μM was incubated with Thiofalvin T (at a concentration of 1 μM) and the formation of amyloid fibril was measured by following the Thiofalvin T fluorescence intensity [excitation (450 nm); emission (485 nm)] in the presence or absence of 0.24 μM BChE (purified from pooled human plasma). Note that the addition of BChE increases the lag time for amylin fibrillation from 30 minutes to 110 minutes.
To test the ability of BChE to prevent amylin amyloid fibril formation, the present inventors have tested the rate of amylin fibrillation (at a concentration of 20 μM) in the presence or absence of 0.24 μM BChE (purified from pooled human serum). As is shown in FIG. 6, BChE completely attenuated the formation of amylin fibrils for 100 minutes, and increased the lag time of amyloid fibril formation from 30 minutes to 110 minutes.

Aβ (1-40) peptide = target: T2, Aβ (1-40) peptide (Homo sapiens, UniProt P05067); assay: In vitro formation of amyloid fibril from Aβ (1-40), Thioflavin T fluorescence; format: biochemical; conditions: for effect on Aβ fibril formation (in words): 33 μM Aβ; for Lag (fold change) / Rate (fold change): relative to No addition, asterisk = statistically significant
T2 construct: synthetic Aβ (1-40) peptide; purchased Biosource, Camarillo, Calif., USA; host or cells: chemical synthesis
T2 sequence (P05067 672-711 limits assumed): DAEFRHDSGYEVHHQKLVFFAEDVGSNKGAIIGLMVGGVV
Excerpt: In vitro formation of amyloidfibril—In vitro formation of amyloid fibril was in the presence of the synthetic Aβ (1-40) peptide (Biosource, Camarillo, Calif., USA) as a precursor. The reporter molecule was Thioflavin T (ThT) (Sigma, Cat. No. T-3516, Jerusalem, Israel), a benzothiazole dye that undergoes a shift in its excitation spectrum (from 340 nm to 450 nm) when interacting with β-sheet amyloid structures. The resultant ThT fluorescence signal is proportional to the amount of amyloid formed (LeVine, 1993). A stock solution of Aβ in dimethylsulfoxide (DMSO) was diluted with phosphate-buffered saline (PBS) containing 0.02% Na-Azid to a final concentration of 162 μM and 20 μl of the diluted Aβ solution was placed in each well of a 96 multiwell plate (Nunc, Roskilde, Denmark). After 20 minutes of pre-incubation at room temperature of the Aβ samples (20 μl), 80 μl of 1.25 μM ThT in 50 mM glycine buffer, pH 8.5, was added. Incubation was with shaking at 200 rpm for 6 to 8 hours at the noted temperatures. Fluorescence was measured continuously or at 30-40 minute intervals, using a Spectro-fluorometer (Tecan, Maennedorf, Switzerland). Excitation and emission wavelengths were 450 nm and 485 nm, respectively. Enhancement of the fibrillation process by the different combinations of water-dissolved cholinesterases and peptides mimicking fragments thereof, was evaluated by dissecting the time curves into two stages: the lag before the onset of the fluorescence increase (the nucleation process) and the average rate of fluorescence increase at several time points (rate of fibrils formation). Statistics analysis was performed using the Kaleidagraph Software (Reading, Pa., USA).
BChE attenuates amyloid fibrils formation—Amyloid fibril (Aβ) formation was quantified by measuring changes in ThT fluorescence. As predicted, Aβ fibrils were spontaneously formed in vitro provided that the Aβ peptide was present above 5 μM. […] Reactions were performed in the absence or presence of increasing concentrations of purified human BChE (SEQ ID NO:2; FIG. 1a), recombinant ACHE-S (SEQ ID NO:6; FIG. 1b) or both (FIGS. 1c and d). […] Due to the complex kinetics of the fibril formation process the apparent rate of change in ThT fluorescence was repeatedly determined during the exponential phase of increase in its signal (at 390±20 minutes). […] In contrast, addition of similar doses of AChE to Aβ, predictably shortened by half the lag time prior to fibril formation, again in a dose dependent manner (FIG. 1e). The lag period therefore decreased from 240 minutes to 150 minutes and the maximal rate of fibril formation increased from 0.057 to 0.116 fluorescence units (FU)/min for Aβ alone as compared to Aβ in the presence of 0.36 μM AChE-S (FIG. 1b and Table 7, hereinbelow). When increasing doses of hBChE were added to a combined mix of 33 μM Aβ with 0.36 μM AChE-S, a dose-dependent interference with the fibril formation process was observed (FIG. 1c and 2a). Thus, BChE is capable of reducing the rate of fibrillation of Aβ alone, or Aβ which is formed in the presence of AChE.

[2] = single C-terminal substitution (A539T); Bartels et al., 1992; cited from earlier work

Molecule | Rate of hydrolysis of AThCh/BThCh ([1]; Substrate 0.1 mM) | Rate of hydrolysis of AThCh/BThCh ([1]; Substrate 25.0 mM) | effect on Aβ fibril formation (in words) (Aβ (1-40) peptide; ThT fluorescence) | Lag (fold change) (Aβ (1-40) peptide) | Rate (fold change) (Aβ (1-40) peptide) | further results
B1 | 0.45 | 0.20 | prolonged the lag and reduced the apparent rate of amyloid formation | 1.4* fold change | 0.3* fold change | BChE capacity to hydrolyze ACh, fold lower than that of AChE ([1]; increased / high ACh concentrations (as in 25 mM)): 12 fold; BChE capacity of ACh hydrolysis in the circulation, fold lower than that of AChE ([1]; normal circumstances, low ACh): ca. 80 fold; time for which formation of amylin fibrils was completely attenuated (Amylin; 0.24 μM BChE): 100 min; lag time of amylin amyloid fibril formation (Amylin; 1 μM ThT, 0.24 μM BChE (without BChE 30 minutes)): 110 min; time for which fibril formation was totally prevented (Aβ (1-40) peptide; 0.4 μM BChE added to 33 μM Aβ): over 600 minutes; concentration needed for complete attenuation of Aβ fibrillation (Aβ (1-40) peptide; attenuation for 400 minutes of incubation, ThT fluorescence): 30000 ng/mL
B2 | – | – | no significant effect on amyloid formation | 1.5 fold change | 0.7 fold change | –
B3 | – | – | – | 0.6* fold change | 2.1* fold change | maximal rate of fibril formation (Aβ (1-40) peptide; Aβ in the presence of 0.36 μM AChE-S (Aβ alone 0.057)): 0.116 FU/min; lag period prior to fibril formation (Aβ (1-40) peptide; Aβ in the presence of 0.36 μM AChE-S (Aβ alone 240 minutes)): 150 min
B4 | – | – | – | – | – | reduction in hydrolytic activity [2]: 30%
B5 | 120 | 7.2 | – | – | – | AThCh hydrolysis ratio difference of AChE:BChE ([1]; at 0.1 mM substrate): 245 fold; AThCh hydrolysis ratio difference of AChE:BChE ([1]; at 25 mM substrate): 36 fold
